Results taken from the supplement of paper PMC10567573.
± gives the standard deviation.

Experiment: protein stability index of a GFP-peptide fusion (GPS, HEK-293T) (PSI 1-6); higher = more stable
[1] = treatment: DMSO, c terminus: a fixed tail appended
[2] = treatment: MLN4924 1 uM, 8 h, c terminus: a fixed tail appended
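Note: 24-mer peptide tiles fused after GFP, lentivirally expressed, FACS-sorted into six equal bins by GFP/DsRed ratio, decoded by Illumina sequencing, PSI is the read-weighted mean bin number.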

Sequence	protein stability index [1]	protein stability index [2]	protein stability index (treatment: DMSO, c terminus: native)	protein stability index (treatment: MLN4924 1 uM, 8 h, c terminus: native)
EPGKQERDVYLPAGKWRSYKGELF [MYORG]	3.17 ± 0.087	3.2 ± 0.21		
ALNSMLRRRFREKKKAIQEEEERD [YJU2B]	3.57 ± 0.12	3.59 ± 0.1		
VFCREGPTHQAHTVGFLDEAIQPY [TRIM15]	2.85 ± 0.31	2.83 ± 0.24		
NCPAHWLAQDWERCNTTCGRGVKK [ADAMTSL2]	4.16 ± 0.19	4.42 ± 0.16		
ADFGRLVNLQHLDLLNNKLVTLPV [LRRC59]	2.3 ± 0.2	2.37 ± 0.21		
FYLVYFKIQASGETPNSLNTTVIP [LYSMD4]	2.9 ± 0.04			
EVHSLTLSPPEQAAQPMQPLPESL [PLAGL1]	4.92 ± 0.26	5.02 ± 0.088		
QSPTLEFLLRNSQRTVGQLMELCR [EDARADD]	2.49 ± 0.21	2.56 ± 0.26		
QNSRNKRAVQGPEETVTQDCLQLI [TNFSF13B]	4.55 ± 0.057	4.68 ± 0.12		
FEKLLQLTSQNIEIKLVSDVTADS [PLD5]	2.69 ± 0.59	2.72 ± 0.37		
VCALSALPAGPLPAPLLVLCPSRA [PLEKHN1]	2.12 ± 0.2	2.18 ± 0.16		
QESYENVDSLESHIPSQEVPGTQV [ZNF263]	5.42 ± 0.22	5.28 ± 0.22		
SHECKPEGYEFCHNRKVLTIFSAS [PPEF2]	2.73 ± 0.38	2.76 ± 0.17		
ACDNGLNVRGGKPDDITVLLSIVA [PPTC7]	2.32 ± 0.59	2.16 ± 0.45		
EHIKSLLIKNNSLPRKRQSLRSSS [INTS3]	3.29 ± 0.17	3.38 ± 0.25		
GTSALWRHLRSAHRRELESSGAGS [ZBED3]	3.78 ± 0.57	4.1 ± 0.25		
QEEAIAQFPYVEFTGRDSITCLTC [TMEM106C]	2.5 ± 0.21	2.57 ± 0.24		
KLCKKGLAATTSMAYAKLMLTVMT [FANCE]	2.33 ± 0.52	2.22 ± 0.43		
YLMKTKQFRLKEAFDYIKQRRSMV [DUSP5]	2.19 ± 0.38	2.11 ± 0.33		
LCKATSPADALQYLLQFARKPVEA [INTS4]	2.05 ± 0.28	2.12 ± 0.29		
RYHNSHPLRERARKLSQGILIIRF [YJU2B]	3.08 ± 0.35	2.67 ± 0.45		
LVLYPTSLAIFSEELDGLCFKGEL [PLEKHN1]	2.88 ± 0.58	2.96 ± 0.23		
LNMEEPPVEEPEPKPDRLLVLKVL [SLC19A2]	3.5 ± 0.56	3.8 ± 0.25		

Sequence	protein stability index [1]	protein stability index [2]	protein stability index (treatment: DMSO, c terminus: native)	protein stability index (treatment: MLN4924 1 uM, 8 h, c terminus: native)
LQKDEYRPDKALSEGDLKNAIRVH [PSD2]	4.56 ± 0.055	4.58 ± 0.16		
KSKASFLLLASGLVITDFFGHLIN [PTGFR]	3.11 ± 0.27	2.88 ± 0.57		
LVVHTGCKDFLCQFCAQRFGRKDH [PLAGL1]	2.6 ± 0.34	2.98 ± 0.091		
SEDRTVRVWLKRDSGQYWPSVYHA [WDFY2]	2.27 ± 0.12	2.37 ± 0.21		
LGSAPLDQEPLLSIDLGTAHSAAV [NEK8]	4.08 ± 0.22	4.11 ± 0.15		
MIVDVTPYMNPSPFTVSPNTHVSQ [CLCN6]	2.47 ± 0.17	2.8 ± 0.31		
DNALWERDRNLLQEDKALWEEEKA [CCDC70]	5.57 ± 0.32	5.05 ± 0.31		
VVHRSDEQQHYFNTPFQLSIAPPE [PPTC7]	3.96 ± 0.28	4 ± 0.24		
RNVRFSDEGGFTCFFRDHSYQEEA [MOG]	3.54 ± 0.35	3.75 ± 0.59		
APIDWIEEYTTGMADCILVNSQFT [ALG2]	2.64 ± 0.25	2.81 ± 0.49		
RRPEDQELESLSAIEAELEKVAHQ [CHGA]	5.15 ± 0.09	5.3 ± 0.24		
SNAERGTAEPFPRLHNLYSTPRCA [CBY2]	3.95 ± 0.26	4.03 ± 0.14		
LPTITSELSGAPRCHTVPCAGSTA [PXN]	3.86 ± 0.34	3.83 ± 0.27		
PTQQDVLRTRVKTTGIVETHFTFK [GNAI1]	3.05 ± 0.42	3.51 ± 0.37		
EPPPEVWQVLKTHPGDPRFQCSLW [POLD4]	2.45 ± 0.42	2.55 ± 0.31		
LFDTKHDVYSFAIVIWGVLTQKKP [RIPK4]	2.49 ± 0.56	2.72 ± 0.17		
SEEYRAPRPQSEESWDEEDKRNYP [CHGB]	5.47 ± 0.19	5.42 ± 0.3		
CQYEALVENNRRDVEAWFNTQTEE [KRT36]	2.86 ± 0.39	2.83 ± 0.35		
PLPVSADDTPEVLNRALSNLSSRW [CDS2]	3.82 ± 0.17	3.83 ± 0.19		
LQMEFKAVQQVQRLPFLSSSNLSL [POMP]	2.15 ± 0.22	2.16 ± 0.17		
THPVTNTTEKQRLVKKLQDSVLER [GOLPH3L]	4.13 ± 0.2	4.39 ± 0.13		
PQQAPQDDGSQDPEVLDRESRDRP [PWWP2B]	5.63 ± 0.29	5.47 ± 0.14		
ITYPPGVKEISDKISKEEMVRRLK [PDS5B]	3.49 ± 0.36	3.73 ± 0.44		

Sequence	protein stability index [1]	protein stability index [2]	protein stability index (treatment: DMSO, c terminus: native)	protein stability index (treatment: MLN4924 1 uM, 8 h, c terminus: native)
DSFVVQYEDTNGQPQALLVDGDQS [TNXB]	5 ± 0.27	4.83 ± 0.39		
CEEEVFPLAMNYLDRFLSLEPVKK [CCND1]	3.36 ± 0.16	3.3 ± 0.28		
AMPMQDIKMILKMVQLDSIEDLEV [PRAME]	2.25 ± 0.22	2.25 ± 0.59		
ELMAELEELEQEELNKKMTNIRLP [CHMP4C]	3.55 ± 0.3	3.65 ± 0.22		
RHLDFHVKDLIKKLLVVDRTRRLG [PRKX]	2.57 ± 0.042	2.41 ± 0.36		
FLGGVVRMTISLTVILIESTNEIT [CLCN6]	3.41 ± 0.43	3.42 ± 0.19		
IGKLLYLEDFFVMSDYRGFGIGSE [SAT1]	2.85 ± 0.33	2.9 ± 0.81		
PLIIAARNGHAKVVRLLLEHYRVQ [FEM1B]	2.36 ± 0.36	2.39 ± 0.2		
FVLYFLLACWTYGISVPSGLFVPS [CLCN6]	3.49 ± 0.56	3.09 ± 0.14		
NEKQLHTLRTCYAANPRPDALMKE [ISL2]	4.05 ± 0.43	4.15 ± 0.53		
EHRVAGIFPRLSFKDKSTYIESST [CLPTM1]	3.16 ± 0.2	2.93 ± 0.29		
ASASKFPSSGPVTPQPTALTFAKS [AUP1]	4.33 ± 0.17	4.36 ± 0.38		
VQVPEAWEELLTMKVEAKSHLQWQ [ZSCAN9]	2.46 ± 0.65	2.54 ± 0.26		
QALQHVQASCDEAHKMKFSDLFSL [INTS3]	2.86 ± 0.39	2.95 ± 0.33		
DTLFERATNSSWVVVFKALVTTHH [SNAP91]	2.62 ± 0.55	2.71 ± 0.48		
PDRVYIHPDSPATGAHWMRQPVSF [TBX6]	2.45 ± 0.22	2.54 ± 0.098		
LVLPLVPELLSTHPFFDTAEPDMD [INTS4]	2.56 ± 0.11	2.76 ± 0.68		
REEERPLPRRDFQRQVWLLFEYPE [KCNA3]	2.64 ± 0.43	2.67 ± 0.37		
GLRASTSDGILRGNGTGYLPGRGR [RHOBTB2]	4.58 ± 0.26	4.58 ± 0.2		
MFLAMLAVVSCASIGSGEPPTGN [CDK11A]			2.67 ± 0.36	2.46 ± 0.39
KSNGRGGSQAGGSGSAGQYGSDQQ [MYOZ1]	5.49 ± 0.23	5.4 ± 0.14		
GAEDGDRAILYPCHGMSSQLVRYS [GALNT9]	3.09 ± 0.17	3.16 ± 0.29		
LPPEALTAPSGGQWGAEPEGSCYQ [RNF208]	4.73 ± 0.42	4.73 ± 0.078		

Sequence	protein stability index [1]	protein stability index [2]	protein stability index (treatment: DMSO, c terminus: native)	protein stability index (treatment: MLN4924 1 uM, 8 h, c terminus: native)
LAQFPNTLLGNPKKRMRYFDPLRN [KCNA1]	2.45 ± 0.12	2.48 ± 0.12		
VSLKQEGDDQPSETDHLSMEEEDP [TPRG1]	5.61 ± 0.22	5.63 ± 0.2		
RDVALQIHFTLIQAFCCENDINIL [GADD45A]	2.92 ± 0.52	2.94 ± 0.59		
WNFDFVTETPLEGDFAWERVRGLG [CDKN1A]	2.54 ± 0.42	2.8 ± 0.39		
WIGYEHTSFCGQQFILERGEYPRW [CRYBA1]	2.69 ± 0.41	2.21 ± 0.15		
PADGWKGERPRSEEDNELNLPNLA [GCH1]	5.33 ± 0.34	5.36 ± 0.35		
WFLNALHSALGGTKKKKKTIVTDV [USP39]	2.6 ± 0.61	2.19 ± 0.47		
DFKSCPQGPQGREGLAFLVSCPEG [PWWP2B]	3.61 ± 0.15	3.75 ± 0.16		
NFQNIPKETELPFPKQILDQNNVI [MIA2]	3.54 ± 0.34	3.45 ± 0.24		
LRQRRPLRPQVVTDDDGQAPEAKD [APMAP]	5.43 ± 0.16	5.52 ± 0.12		
AGFTGSGPIQLWQFLLELLSDKSC [ETS2]	2.27 ± 0.19	2.12 ± 0.41		
DFGFAILGFAYAKEDKIMLDDRKN [MIA2]	2.05 ± 0.26	2.16 ± 0.48		
MNSLLIGELSPEQPSFEPTKNKEL [FADS1]	4.26 ± 0.091	4.8 ± 0.21		
TSNSDDNMLKNIELFDKLSLRFNG [KCTD10]	3.07 ± 0.3	3.18 ± 0.39		
EAELELLRQFDLAWQYGPCTGITR [POLD4]	2.85 ± 0.3	2.67 ± 0.3		
PLGTQVAVNAHQWLDNPERWNKVK [SEPHS2]	3.65 ± 0.084	3.61 ± 0.26		
AEIQEACCEFLKRQLDPSNCLGIR [KLHL20]	2.52 ± 0.24	2.67 ± 0.34		
QKILCAKAENARLVVNIDNAKLAS [KRT34]	3.49 ± 0.2	3.56 ± 0.11		
IAMAVYTYLRLIVDHHGTAQLQAL [INTS3]	3.35 ± 0.51	3.17 ± 0.14		
EIPERRDSGVGASLTRSNRHRLRW [DLC1]	4.17 ± 0.35	4.36 ± 0.32		
